Results taken from patent US20090175881A1 (SCHERING, published 2009).

T1: rhIL-17A (human, UniProt Q16552 24-155)
T1 sequence: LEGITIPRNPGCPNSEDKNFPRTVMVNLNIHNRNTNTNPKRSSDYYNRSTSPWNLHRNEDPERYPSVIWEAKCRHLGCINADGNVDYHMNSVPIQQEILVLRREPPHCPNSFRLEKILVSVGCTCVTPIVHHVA

T2: cynomolgus monkey IL-17A (cynomolgus monkey, UniProt A0A2K5TTB0 24-155)
T2 sequence: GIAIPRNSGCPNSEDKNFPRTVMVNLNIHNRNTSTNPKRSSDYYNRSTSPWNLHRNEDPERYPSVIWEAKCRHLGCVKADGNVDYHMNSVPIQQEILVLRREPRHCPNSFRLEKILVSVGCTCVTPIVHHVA

T3: FLAG-huIL-17A (human, UniProt Q16552 24-155)
T3 construct: also called FLAG-huL-17A; FLAG-IL-17A
T3 sequence: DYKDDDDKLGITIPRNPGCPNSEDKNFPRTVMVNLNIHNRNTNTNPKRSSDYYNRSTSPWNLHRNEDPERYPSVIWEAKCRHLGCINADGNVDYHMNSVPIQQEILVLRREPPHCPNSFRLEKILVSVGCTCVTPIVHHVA


Assays:
rhIL-17A [1] = target: T1, rhIL-17A; test: cell-based or functional assay
rhIL-17A [2] = target: T1, rhIL-17A; test: sandwich ELISA, IL-17A captured on rat 12E6, antibody titrated
Experimental: Binding of anti-human-IL-17A monoclonal antibodies to rhIL-17A is assessed using an ELISA as follows. Briefly, a capture antibody is bound to the wells of a microtiter plate, after which a fixed concentration of rhIL-17A is added. The monoclonal anti-IL-17A to be assayed is then titrated versus the bound rhIL-17A on the plate to determine the concentration of antibody needed to achieve half-maximal binding. A more detailed protocol follows.
A 96-well microtiter plate is coated with 100 μl/well of capture antibody (rat anti-hIL-17A 12E6, 0.5 μg/ml) in carbonate coating buffer pH 9.5 (the “assay plate”). Plates are incubated covered at 4° C. for 24 to 48 hours. The assay plate is washed three times in a plate washer (SkanWasher, Molecular Devices, Sunnyvale, Calif., USA) and blotted dry. The plate is then blocked with 200 μl/well of ELISA assay buffer (20 mM Tris-HCl, 0.15 M NaCl, pH7.4, 0.5% BSA, 0.05% Tween-20, SM EDTA) for one hour at 25° C. on an orbital shaker. The plate is washed, and 100 μl/well of either adenovirus-derived rhIL-17A or E. coli-derived human IL-17 (IL-17A) (R&D Systems, Minneapolis, Minn., USA) (0.1 g/ml) is added in ELISA assay buffer and incubated for 2 hours at 25° C. on an orbital shaker. […] Plates are incubated for 1.5 hours at 25° C. on an orbital shaker. Plates are washed and 100 μl/well secondary antibody (F(ab′)₂ goat anti-human kappa light chain—HRP, 1:20,000 dilution, BioSource, Carlsbad, Calif., USA) is added, except for assay blank wells. Plates are washed twice (i.e. two cycles of 3 washes per cycle) with plate rotation between cycles. TMB substrate (Kirkegaard & Perry Laboratories, Gaithersburg, Md., USA) is added at 100 μl/well and incubated 3-5 minutes on an orbital shaker. Stop solution is added (100 μl/well) and the plate is read for absorbance at 450-570 um on a plate reader (Versamax, Molecular Devices, Sunnyvale, Calif., USA).

rhIL-17A [3] = target: T1, rhIL-17A; test: cell-based or functional assay; remark: listed apart in the source
rhIL-17A [4] = target: T1, rhIL-17A; test: KinExA, solution equilibrium
Experimental: (§1) The equilibrium dissociation constants (Kd) for anti human IL-17A antibodies were determined using the KinExA 3000 instrument (Sapidyne Instruments Inc., Boise, Id., USA). KinExA uses the principle of the Kinetic Exclusion Assay method based on measuring the concentration of uncomplexed antibody in a mixture of antibody, antigen and antibody-antigen complex. […] The concentration of free antibody is measured by exposing the mixture to a solid-phase immobilized antigen for a very brief period of time. l practice, this is accomplished by flowing the solution phase antigen-antibody mixture past antigen-coated particles trapped in a flow cell. Data generated by the instrument are analyzed using custom software.
(§2) IL-17A was derived from either human (“hu”), cynomolgus monkey (“cyno”), or mouse (“mu”). IL-17A from the same species was used in both the immobilized and solution phases for each KinExA determination. Poly(methyl-methacrylate) (PMMA) particles (98 micron) were coated with human, cyno or mouse IL-17A according to Sapidyne “Protocol for coating PMMA particles with biotinylated ligands having short or nonexistent linker arms.” All experimental procedures were done according to the KinExA 3000 manual. All runs were done in duplicate.
(§3) Two-fold serial dilutions of the antigen were prepared and mixed with the antibody at constant concentration. The mixture was incubated for 2 hours at 25° C. to equilibrate.

cynomolgus monkey IL-17A [5] = target: T2, cynomolgus monkey IL-17A; test: cell-based or functional assay
rhIL-17A [6] = target: T1, rhIL-17A; test: cell-based or functional assay; remark: listed apart in the source
cynomolgus monkey IL-17A [7] = target: T2, cynomolgus monkey IL-17A; test: ECL (Origen); area under the curve
Text: (§4) Origen electrochemiluminescence technology, developed by IGEN, Inc. (Gaithersburg, Md., USA), and was employed to measure the binding of rat anti-human IL-17A antibodies (and one chimeric antibody) to FLAG-huL-17A. […] Electrochemiluminescence technology uses a stable ruthenium metal chelate (Ori-TAG) which, in the presence of tripropylamine (TPA), generates electrochemiluminescence upon voltage application. Paramagnetic beads, microns in diameter, act as the solid phase and facilitate rapid assay kinetics. The bead/complex is channeled through a flow cell and captured at an electrode by magnetic application. Voltage is applied and resulting electrochemiluminescence is measured.
(§5) ECL assays were performed as follows. Three-fold serial dilutions of anti-human IL-17A mAbs in 50 μl of the assay buffer were made in a 96-well microtiter plate to give 1-3 μg/ml final concentration in the first well. […] Finally 50 μl of Origen Streptavidin-Dynabeads at 0.1 mg/ml was added to each well. […] GraphPad Prism software (GraphPad Software, San Diego, Calif., USA) was used to plot the data and calculate area under the curve, which is a rough measure of binding.

FLAG-huIL-17A [8] = target: T3, FLAG-huIL-17A; test: ECL (Origen), antibody titrated against biotinylated antigen; area under the curve
Text: as §4, §5

cynomolgus monkey IL-17A [9] = target: T2, cynomolgus monkey IL-17A; test: KinExA, solution equilibrium
Experimental: as §1, §2, §3

FLAG-huIL-17A [10] = target: T3, FLAG-huIL-17A; test: KinExA, solution equilibrium
Experimental: as §1, §2, §3

| Binder | IC50, synoviocyte IL-8 production, rhIL-17A (30 ng/ml) (rhIL-17A [1]) [µg/mL] | EC50 (rhIL-17A [2]) [nM] | IC50, synoviocyte IL-6 production, rhIL-17A (30 ng/ml) (rhIL-17A [3]) [µg/mL] | other results |
| --- | --- | --- | --- | --- |
| hu 16C10 VH M96A (antibody, human IgG1, V domains shown, Variant of hu 16C10 wt; Human IgG1/kappa; also called hu16C10 (M96A)) VH: QVQLQESGPGLVKPSETLSLTCTVSGFSLPSHSVSWIRQPPGKGLEWIGIIWNNGGTDYNSAFKSRVTISVDTSKNQFSLKLSSVTAADTAVYYCARNAYITDYYYENYFMDAWGQGTLVTVSS VL: DIVMTQSPLSLPVTPGEPASISCKSSQSLLFSENQKNYLAWYLQKPGQSPQLLIYWTSTRQSGVPDRFSGSGSGTDFTLKISRVEAEDVGVYYCQQSYYTPYTFGQGTKVEIKR | 0.025 | 0.06 | 0.06 | Kd (rhIL-17A [4]): 0.0099 nM |
| hu 16C10 Fab (Fab, V domains shown, also called Fab fragment of hu 16C10) VH: QVQLQESGPGLVKPSETLSLTCTVSGFSLPSHSVSWIRQPPGKGLEWIGIIWNQGGTDYNSAFKSRVTISVDTSKNQFSLKLSSVTAADTAVYYCARNAYITDYYYENYFMDAWGQGTLVTVSS VL: DIVMTQSPLSLPVTPGEPASISCKSSQSLLFSENQKNYLAWYLQKPGQSPQLLIYWTSTRQSGVPDRFSGSGSGTDFTLKISRVEAEDVGVYYCQQSYYTPYTFGQGTKVEIKR | – | – | – | Kd (rhIL-17A [4]): 0.0161 nM |
| hu 16C10 VH N60Q (antibody, human IgG1, V domains shown, Variant of hu 16C10 wt; Human IgG1/kappa) VH: QVQLQESGPGLVKPSETLSLTCTVSGFSLPSHSVSWIRQPPGKGLEWIGIIWNNGGTDYQSAFKSRVTISVDTSKNQFSLKLSSVTAADTAVYYCARNMYITDYYYENYFMDAWGQGTLVTVSS VL: DIVMTQSPLSLPVTPGEPASISCKSSQSLLFSENQKNYLAWYLQKPGQSPQLLIYWTSTRQSGVPDRFSGSGSGTDFTLKISRVEAEDVGVYYCQQSYYTPYTFGQGTKVEIKR | – | 0.074 | – | – |
| hu 16C10 VH M100hF (antibody, human IgG1, V domains shown, Variant of hu 16C10 wt; Human IgG1/kappa; also called hu16C10 (M100hF)) VH: QVQLQESGPGLVKPSETLSLTCTVSGFSLPSHSVSWIRQPPGKGLEWIGIIWNNGGTDYNSAFKSRVTISVDTSKNQFSLKLSSVTAADTAVYYCARNMYITDYYYENYFFDAWGQGTLVTVSS VL: DIVMTQSPLSLPVTPGEPASISCKSSQSLLFSENQKNYLAWYLQKPGQSPQLLIYWTSTRQSGVPDRFSGSGSGTDFTLKISRVEAEDVGVYYCQQSYYTPYTFGQGTKVEIKR | 0.05 | 0.049 | 0.07 | – |
| hu 16C10 VH M96F (antibody, human IgG1, V domains shown, Variant of hu 16C10 wt; Human IgG1/kappa) VH: QVQLQESGPGLVKPSETLSLTCTVSGFSLPSHSVSWIRQPPGKGLEWIGIIWNNGGTDYNSAFKSRVTISVDTSKNQFSLKLSSVTAADTAVYYCARNFYITDYYYENYFMDAWGQGTLVTVSS VL: DIVMTQSPLSLPVTPGEPASISCKSSQSLLFSENQKNYLAWYLQKPGQSPQLLIYWTSTRQSGVPDRFSGSGSGTDFTLKISRVEAEDVGVYYCQQSYYTPYTFGQGTKVEIKR | – | 0.125 | – | – |
| hu 16C10 VH M100hL (antibody, human IgG1, V domains shown, Variant of hu 16C10 wt; Human IgG1/kappa) VH: QVQLQESGPGLVKPSETLSLTCTVSGFSLPSHSVSWIRQPPGKGLEWIGIIWNNGGTDYNSAFKSRVTISVDTSKNQFSLKLSSVTAADTAVYYCARNMYITDYYYENYFLDAWGQGTLVTVSS VL: DIVMTQSPLSLPVTPGEPASISCKSSQSLLFSENQKNYLAWYLQKPGQSPQLLIYWTSTRQSGVPDRFSGSGSGTDFTLKISRVEAEDVGVYYCQQSYYTPYTFGQGTKVEIKR | – | 0.053 | – | – |
| hu 16C10 VH N54A (antibody, human IgG1, V domains shown, Variant of hu 16C10 wt; Human IgG1/kappa; also called hu16C10 (N54A)) VH: QVQLQESGPGLVKPSETLSLTCTVSGFSLPSHSVSWIRQPPGKGLEWIGIIWNAGGTDYNSAFKSRVTISVDTSKNQFSLKLSSVTAADTAVYYCARNMYITDYYYENYFMDAWGQGTLVTVSS VL: DIVMTQSPLSLPVTPGEPASISCKSSQSLLFSENQKNYLAWYLQKPGQSPQLLIYWTSTRQSGVPDRFSGSGSGTDFTLKISRVEAEDVGVYYCQQSYYTPYTFGQGTKVEIKR | 0.025 | 0.075 | 0.06 | Kd (rhIL-17A [4]): 0.0108 nM |
| hu 16C10 VH N54Q (antibody, human IgG1, V domains shown, Variant of hu 16C10 wt; Human IgG1/kappa; also called hu16C10 (N54Q)) VH: QVQLQESGPGLVKPSETLSLTCTVSGFSLPSHSVSWIRQPPGKGLEWIGIIWNQGGTDYNSAFKSRVTISVDTSKNQFSLKLSSVTAADTAVYYCARNMYITDYYYENYFMDAWGQGTLVTVSS VL: DIVMTQSPLSLPVTPGEPASISCKSSQSLLFSENQKNYLAWYLQKPGQSPQLLIYWTSTRQSGVPDRFSGSGSGTDFTLKISRVEAEDVGVYYCQQSYYTPYTFGQGTKVEIKR | 0.025 | 0.065 | 0.06 | Kd (rhIL-17A [4]): 0.007 nM |
| hu 16C10 VH M96L (antibody, human IgG1, V domains shown, Variant of hu 16C10 wt; Human IgG1/kappa) VH: QVQLQESGPGLVKPSETLSLTCTVSGFSLPSHSVSWIRQPPGKGLEWIGIIWNNGGTDYNSAFKSRVTISVDTSKNQFSLKLSSVTAADTAVYYCARNLYITDYYYENYFMDAWGQGTLVTVSS VL: DIVMTQSPLSLPVTPGEPASISCKSSQSLLFSENQKNYLAWYLQKPGQSPQLLIYWTSTRQSGVPDRFSGSGSGTDFTLKISRVEAEDVGVYYCQQSYYTPYTFGQGTKVEIKR | – | 0.066 | – | – |
| hu 16C10 VH N60A (antibody, human IgG1, V domains shown, Variant of hu 16C10 wt; Human IgG1/kappa) VH: QVQLQESGPGLVKPSETLSLTCTVSGFSLPSHSVSWIRQPPGKGLEWIGIIWNNGGTDYASAFKSRVTISVDTSKNQFSLKLSSVTAADTAVYYCARNMYITDYYYENYFMDAWGQGTLVTVSS VL: DIVMTQSPLSLPVTPGEPASISCKSSQSLLFSENQKNYLAWYLQKPGQSPQLLIYWTSTRQSGVPDRFSGSGSGTDFTLKISRVEAEDVGVYYCQQSYYTPYTFGQGTKVEIKR | – | 0.063 | – | – |
| hu 16C10 VH M96K (antibody, human IgG1, V domains shown, Variant of hu 16C10 wt; Human IgG1/kappa; also called hu16C10 (M96K)) VH: QVQLQESGPGLVKPSETLSLTCTVSGFSLPSHSVSWIRQPPGKGLEWIGIIWNNGGTDYNSAFKSRVTISVDTSKNQFSLKLSSVTAADTAVYYCARNKYITDYYYENYFMDAWGQGTLVTVSS VL: DIVMTQSPLSLPVTPGEPASISCKSSQSLLFSENQKNYLAWYLQKPGQSPQLLIYWTSTRQSGVPDRFSGSGSGTDFTLKISRVEAEDVGVYYCQQSYYTPYTFGQGTKVEIKR | 0.025 | 0.068 | 0.06 | – |
| rat 12E6 (antibody, V domains shown) VH: EVQLEESGGGLVQPGRSLKLSCAASGFTFRDYYMVWVRQAPKKGLEWVASISYEGSSIYYGESVKGRFTISRDNAKSTLYLQMNSLRSEDTATYYCARHGFNPFDYWGRGVMVTVSS VL: DIQMTQSPSSLSASLGDRVTITCRTSQDIGNYLSWFQQKPGKSPRLMIYGASNLEDGVPSRFSGSRSGSDYSLTISSLESEDTAIYYCLQYDKYPNTFGAGTKLELKR | – | – | – | IC50, inhibition of IL-6 production in NHDF cells, cyno IL-17A (cynomolgus monkey IL-17A [5]): > 70 nM; IC50, inhibition of IL-6 production in NHDF cells, rhIL-17A (rhIL-17A [6]): > 70 nM |
| rat 4C3 (antibody, V domains shown) VH: QVELRESGPGLVQPSQTLSLTCTVSGFSLPSHSVSWIRQPPGKGLEWMGIIWNNGGTDYNSAFKSRLTISRDTSKSQVFLKMNSLQTEDTAMYFCARNMYITDYYYENYFMDAWGQGASVTVSS VL: DIVMTQSPSSLAVSVGETVTLNCKSSQSLLFSENQKNYLAWYQHKSGQSPKLLVYWTSTRQSGVPDRFMGSGSGTDFTLTISSVQAEDLAIYYCQQSYYTPYTFGAGTKLELKR | – | – | – | IC50, inhibition of IL-6 production in NHDF cells, cyno IL-17A (cynomolgus monkey IL-17A [5]): 0.2 nM; IC50, inhibition of IL-6 production in NHDF cells, rhIL-17A (rhIL-17A [6]): 0.5 nM |
| rat 30C10 (antibody, V domains shown, Parental rat monoclonal antibody (hybridoma PTA-7739); also called 30C10C) VH: EVQLVESGGGLVQPGRSQKLSCVVSGFTFNNYWMTWIRQAPGKGLEWVASVSNTGSSTYYPASVKGRFTISRDNAKSTLYLQMNSLRSEDTATYYCTREGAYYLDYWGQGVMVTVSS VL: DIVMTQSPSSLAVSPGETVTINCKSSQSLFWSESHMNYLAWYQQKPGQSPKLLIYYASTRQSGVPDRFIGSGSGTDFTLTISGVQAEDLAVYYCHHHYDSHTFGAGTKLELKR | – | – | – | Area Under Peak (cynomolgus monkey IL-17A [7]): 124000; IC50, inhibition of IL-6 production in NHDF cells, cyno IL-17A (cynomolgus monkey IL-17A [5]): 0.2 nM; IC50, inhibition of IL-6 production in NHDF cells, rhIL-17A (rhIL-17A [6]): 0.5 nM; Area Under Peak (FLAG-huIL-17A [8]): 312000; Kd (cynomolgus monkey IL-17A [9]): 0.0326 nM; Kd (FLAG-huIL-17A [10]): 0.011 nM |
